Our source for the inhibition ratio of binding of F1024-1-3 antibody to human CD14 values is US20040091478A1.

The target of the experiment is F1024-1-3 antibody (monoclonal antibody produced by hybridoma F1024-1-3, Accession No. FERM BP-7511). Briefly: competition ELISA: 4-fold diluted serum mixed with 1 µg/mL peroxidase-labeled F1024-1-3, added to immobilised human CD14(1-356). (In an ELISA, binding on a coated surface is turned into a signal by an enzyme label.)

B1: rabbit soluble type CD14 (in New Zealand white rabbit serum) (receptor, UniProt Q28680 18-342, looked up)
chain: STDTPEPCELDDDDIRCVCNFSDPQPDWSSALQCMPAVQVEMWGGGHSLEQFLRQADLYTDQRRYADVVKALRVRRLTVGAVQVPAPLLLGVLRVLGYSRLKELALEDIEVTGTAPPPPPLEATGPALSTLSLRNVSWPKGGAWLSELQQWLKPGLQVLNIAQAHTLAFSCEQVRTFSALTTLDLSENPGLGERGLVAALCPHKFPALQDLALRNAGMKTLQGVCAALAEAGVQPHHLDLSHNSLRADTQRCIWPSALNSLNLSFTGLQQVPKGLPAKLNVLDLSCNKLNRAPQPGELPKVVNLSLDGNPFLVPGASKLQEDLTN
With B1, the inhibition ratio of binding of F1024-1-3 antibody to human CD14 turned out to be 52%.

B2: rhesus monkey soluble type CD14 (in serum) (receptor)
chain: TTPEPCELDDEDFRCVCNFSEPHPDWSEAFQCVSAVEVEIRVGGLSLEPFLTRVDPDADPRQYADTIKALRVRRLTVGAAQVPAQLLVGALRVLAYSRLQELTLEDLEITGTMPPLPLEATGLALSSLRLHNVSWATGRSWLAELQQWLKPGLKVLSIAQAHSPAFSCEQVRAFPALTSLDLSDNPGLGERGLIAALCPHKFPALQNLALRNTGMETPTGVCAALAAAGVQPHSLDLSHNSLRATANPSAPRCMWSSALNSLNLSFAGLEQVPKGLPAKLRVLDLSCNRLNRRPRPDELPQVDNLALDGNPFLVPGTALPQEGSMN
Take B2: the inhibition ratio of binding of F1024-1-3 antibody to human CD14 came out at 44%.

B3: crab-eating macaque soluble type CD14 (in serum) (receptor)
chain: TTPEPCELDDEDFRCVCNFSEPHPDWSEAFQCVSAVEVEIRVGGLSLEPFLTRVDPDADPRQYADTIKALRVRRLTVGAAQVPAQLLVGALRVLAYSRLQELTLEDLEITGTMPPLPLEATGLALSSLRLHNVSWATGRSWLAELQQWLKPGLKVLSIAQAHSPAFSCEQVRAFPALTSLDLSDNPGLGERGLIAALCPHKFPALQNLALRNTGMETPTGVCAALAAAGVQPHSLDLSHNSLRATANPSAPRCMWSSALNSLNLSFAGLEQVPKGLPAKLRVLDLSCNRLNRRPRPDELPQVDNLALDGNPFLVPGTALPQEGSMN
As to B3, the inhibition ratio of binding of F1024-1-3 antibody to human CD14 was found to be 57%.

B4: soluble type CD14 purified from human serum (receptor)
chain: TTPEPCELDDEDFRCVCNFSEPQPDWSEAFQCVSAVEVEIHAGGLNLEPFLKRVDADADPRQYADTVKALRVRRLTVGAAQVPAQLLVGALRVLAYSRLKELTLEDLKITGTMPPLPLEATGLALSSLRLRNVSWATGRSWLAELQQWLKPGLKVLSIAQAHSPAFSCEQVRAFPALTSLDLSDNPGLGERGLMAALCPHKFPAIQNLALRNTGIETPTGVCAALAAAGVQPHSLDLSHNSLRATVNPSAPRCMWSSALNSLNLSFAGLEQVPKGLPAKLRVLDLSCNRLNRAPQPDELPEVDNLTLDGNPFLVPGTALPHEGSMNSGVVPACARSTLSVGVSGTLVL
As to B4, the inhibition ratio of binding of F1024-1-3 antibody to human CD14 was determined as 83%.
